B2: RsbWCt, recombinant purified (SPR analyte) (natural protein, Chlamydia trachomatis, UniProt O84553 1-146, looked up)
chain: MTFSEGEQVFPATLQDLYPMLDFVKRAGVHCNCTQKKLSKLELACEELLLNIITHAYKGLPSTGWIRILCTETPDALLVRITDHGPAFNPITASPDIMRLDLPIEQRRIGGLGIFLAKYSVDVFDYERVNDTNVVTLTLYTKPHNS
notes: RsbW of Chlamydia trachomatis, cloned from serovar D/UW/CX genomic DNA; also called CT549; source: PC2 E. coli, pGEX-derived vector, purified

Assays:
[1] = biological target: B2; test: SPR; RsbV1, RsbV2 or their S-to-A / S-to-D derivatives immobilized on CM5 chip, RsbWCt analyte (2500nM for the wild-type ligands) with ATP, first and repeated injections; empty reference flow cell; 10mM HEPES, 150mM NaCl, 1mM MgCl2, 30°C; conditions: both partners purified
[2] = biological target: T1, σ^66, recombinant purified, amine-coupled SPR ligand (Chlamydia trachomatis, UniProt P18333 1-571); test: SPR; Biacore 3000, CM5 chip; σ66, σ28 and σ54 amine-coupled to consecutive flow cells, RsbWCt analyte at various concentrations; reference flow cell with immobilized GST; Req as percent of theoretical Rmax; 10mM HEPES, 150mM NaCl, 1mM MgCl2, 30°C; conditions: both partners purified
T1 construct: Sigma66 (RpoD) of Chlamydia trachomatis, cloned from serovar D/UW/CX genomic DNA; may be the same construct as m12 (GST-σ66); also called Sigma66; RpoD; source: PC2 E. coli, pGEX-derived vector, purified
T1 sequence (looked up): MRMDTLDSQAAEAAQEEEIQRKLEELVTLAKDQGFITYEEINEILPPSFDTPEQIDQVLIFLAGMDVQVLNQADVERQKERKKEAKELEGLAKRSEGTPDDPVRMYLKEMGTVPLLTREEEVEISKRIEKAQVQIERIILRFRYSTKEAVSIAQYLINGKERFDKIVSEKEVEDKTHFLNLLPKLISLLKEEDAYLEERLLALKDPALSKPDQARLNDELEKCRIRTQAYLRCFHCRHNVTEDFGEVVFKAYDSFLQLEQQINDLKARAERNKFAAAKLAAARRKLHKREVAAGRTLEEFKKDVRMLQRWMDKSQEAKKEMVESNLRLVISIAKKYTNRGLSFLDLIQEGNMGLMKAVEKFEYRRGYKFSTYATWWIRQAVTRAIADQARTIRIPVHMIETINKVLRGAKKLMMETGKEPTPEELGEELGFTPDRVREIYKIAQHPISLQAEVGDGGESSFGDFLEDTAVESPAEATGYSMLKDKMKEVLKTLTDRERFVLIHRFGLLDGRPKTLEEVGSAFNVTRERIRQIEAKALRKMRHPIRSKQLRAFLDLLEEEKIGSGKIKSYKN

B1: RsbV1 S56A (natural protein)
chain: MSNFQKEEQGQTGILHLQGKLDGVSSPAVQESISESLSNGMKNIILDCGDLDYISAAGIRVLLQSYHQVGKNAGKIALTSVSKTVEQTLYVTGFLSYFKVFDSVNEALQALAKENS
notes: RsbV1 of Chlamydia trachomatis (serovar D/UW/CX) with the phospho-accepting serine 56 changed to alanine; also called alanine derivative of RsbV1; source: PC2 E. coli, pGEX-derived vector (site directed mutagenesis), purified
Does B1 bind [1]?
Result: binds

Does B2 bind [2]?
Result: binds

B3: RsbV2 S55A (natural protein)
chain: MEWIAREYKNIFIVSLKGDMDAVTVPALEEFLTKSIAKGRVNVLLNMEKVFYMSAAGLRTLLSLAKLTQNHNGKLCICCLRDEVADIIRIAGLDKVITIRKAEQESFSDF
notes: RsbV2 of Chlamydia trachomatis (serovar D/UW/CX) with the phospho-accepting serine 55 changed to alanine; also called alanine derivative of RsbV2; source: PC2 E. coli, pGEX-derived vector (site directed mutagenesis), purified
Does B3 bind [1]?
Result: binds
